Reference: patent publication US20170298139A1 (OPI VI IP HOLDCO, published 2017)

B1: SBT-040-WT-ATAC11 (antibody, human IgG1, kappa)
heavy: not shown
light: DIQMTQSPSSVSASVGDRVTITCRASQGIYSWLAWYQQKPGKAPNLLIYTASTLQSGVPSRFSGSGSGTDFTLTISSLQPEDFATYYCQQANIFPLTFGGGTKVEIKRTVAAPSVFIFPPSDEQLKSGTASVVCLLNNFYPREAKVQWKVDNALQSGNSQESVTEQDSKDSTYSLSSTLTLSKADYEKHKVYACEVTHQGLSSPVTKSFNRGEC
modifications: ATAC11 on reduced cysteines; sites not stated (heavy or light chain); ATAC11 (maleimide-PEG4 linker with immune-stimulatory compound) on reduced cysteines; sites not stated (heavy or light chain); DAR 4.5
B2: SBT-040-G2-ATAC3 (antibody, human IgG2, kappa)
heavy: not shown
light: DIQMTQSPSSVSASVGDRVTITCRASQGIYSWLAWYQQKPGKAPNLLIYTASTLQSGVPSRFSGSGSGTDFTLTISSLQPEDFATYYCQQANIFPLTFGGGTKVEIKRTVAAPSVFIFPPSDEQLKSGTASVVCLLNNFYPREAKVQWKVDNALQSGNSQESVTEQDSKDSTYSLSSTLTLSKADYEKHKVYACEVTHQGLSSPVTKSFNRGEC
modifications: ATAC3 on lysines; sites not stated (heavy or light chain); ATAC3 (PEG linker with activated ester and immune-stimulatory compound) on lysines; sites not stated (heavy or light chain); DAR 3.3
B3: SBT-040-WT-ATAC4 (antibody, human IgG1, kappa)
heavy: not shown
light: DIQMTQSPSSVSASVGDRVTITCRASQGIYSWLAWYQQKPGKAPNLLIYTASTLQSGVPSRFSGSGSGTDFTLTISSLQPEDFATYYCQQANIFPLTFGGGTKVEIKRTVAAPSVFIFPPSDEQLKSGTASVVCLLNNFYPREAKVQWKVDNALQSGNSQESVTEQDSKDSTYSLSSTLTLSKADYEKHKVYACEVTHQGLSSPVTKSFNRGEC
modifications: ATAC4 on lysines; sites not stated (heavy or light chain); ATAC4 (PEG linker with activated ester and immune-stimulatory compound) on lysines; sites not stated (heavy or light chain); DAR 4.6
notes: also called SBT-040-G1-ATAC4
B4: SBT-040-WT antibody (antibody, human IgG1, kappa)
heavy: not shown
light: DIQMTQSPSSVSASVGDRVTITCRASQGIYSWLAWYQQKPGKAPNLLIYTASTLQSGVPSRFSGSGSGTDFTLTISSLQPEDFATYYCQQANIFPLTFGGGTKVEIKRTVAAPSVFIFPPSDEQLKSGTASVVCLLNNFYPREAKVQWKVDNALQSGNSQESVTEQDSKDSTYSLSSTLTLSKADYEKHKVYACEVTHQGLSSPVTKSFNRGEC
notes: also called SBT-040-G1
B5: SBT-040-G2-ATAC22 (antibody, human IgG2, kappa)
heavy: not shown
light: DIQMTQSPSSVSASVGDRVTITCRASQGIYSWLAWYQQKPGKAPNLLIYTASTLQSGVPSRFSGSGSGTDFTLTISSLQPEDFATYYCQQANIFPLTFGGGTKVEIKRTVAAPSVFIFPPSDEQLKSGTASVVCLLNNFYPREAKVQWKVDNALQSGNSQESVTEQDSKDSTYSLSSTLTLSKADYEKHKVYACEVTHQGLSSPVTKSFNRGEC
modifications: ATAC22 on reduced cysteines; sites not stated (heavy or light chain); ATAC22 (maleimidocaproyl-Val-Ala-PAB linker with immune-stimulatory compound) on reduced cysteines; sites not stated (heavy or light chain); DAR 4.1
B6: SBT-040-WT-ATAC22 (antibody, human IgG1, kappa)
heavy: not shown
light: DIQMTQSPSSVSASVGDRVTITCRASQGIYSWLAWYQQKPGKAPNLLIYTASTLQSGVPSRFSGSGSGTDFTLTISSLQPEDFATYYCQQANIFPLTFGGGTKVEIKRTVAAPSVFIFPPSDEQLKSGTASVVCLLNNFYPREAKVQWKVDNALQSGNSQESVTEQDSKDSTYSLSSTLTLSKADYEKHKVYACEVTHQGLSSPVTKSFNRGEC
modifications: ATAC22 on reduced cysteines; sites not stated (heavy or light chain); ATAC22 (maleimidocaproyl-Val-Ala-PAB linker with immune-stimulatory compound) on reduced cysteines; sites not stated (heavy or light chain); DAR 4.6
B7: SBT-040-WT-ATAC3 (antibody, human IgG1, kappa)
heavy: not shown
light: DIQMTQSPSSVSASVGDRVTITCRASQGIYSWLAWYQQKPGKAPNLLIYTASTLQSGVPSRFSGSGSGTDFTLTISSLQPEDFATYYCQQANIFPLTFGGGTKVEIKRTVAAPSVFIFPPSDEQLKSGTASVVCLLNNFYPREAKVQWKVDNALQSGNSQESVTEQDSKDSTYSLSSTLTLSKADYEKHKVYACEVTHQGLSSPVTKSFNRGEC
modifications: ATAC3 on lysines; sites not stated (heavy or light chain); ATAC3 (PEG linker with activated ester and immune-stimulatory compound) on lysines; sites not stated (heavy or light chain); DAR 5.4
notes: also called SBT-040-G1-ATAC3
B8: SBT-040-G2-ATAC4 (antibody, human IgG2, kappa)
heavy: not shown
light: DIQMTQSPSSVSASVGDRVTITCRASQGIYSWLAWYQQKPGKAPNLLIYTASTLQSGVPSRFSGSGSGTDFTLTISSLQPEDFATYYCQQANIFPLTFGGGTKVEIKRTVAAPSVFIFPPSDEQLKSGTASVVCLLNNFYPREAKVQWKVDNALQSGNSQESVTEQDSKDSTYSLSSTLTLSKADYEKHKVYACEVTHQGLSSPVTKSFNRGEC
modifications: ATAC4 on lysines; sites not stated (heavy or light chain); ATAC4 (PEG linker with activated ester and immune-stimulatory compound) on lysines; sites not stated (heavy or light chain); DAR 2.9
B9: SBT-040-G2-ATAC11 (antibody, human IgG2, kappa)
heavy: not shown
light: DIQMTQSPSSVSASVGDRVTITCRASQGIYSWLAWYQQKPGKAPNLLIYTASTLQSGVPSRFSGSGSGTDFTLTISSLQPEDFATYYCQQANIFPLTFGGGTKVEIKRTVAAPSVFIFPPSDEQLKSGTASVVCLLNNFYPREAKVQWKVDNALQSGNSQESVTEQDSKDSTYSLSSTLTLSKADYEKHKVYACEVTHQGLSSPVTKSFNRGEC
modifications: ATAC11 on reduced cysteines; sites not stated (heavy or light chain); ATAC11 (maleimide-PEG4 linker with immune-stimulatory compound) on reduced cysteines; sites not stated (heavy or light chain); DAR 4.0
B10: SBT-040-G2 (antibody, human IgG2, kappa)
heavy: not shown
light: DIQMTQSPSSVSASVGDRVTITCRASQGIYSWLAWYQQKPGKAPNLLIYTASTLQSGVPSRFSGSGSGTDFTLTISSLQPEDFATYYCQQANIFPLTFGGGTKVEIKRTVAAPSVFIFPPSDEQLKSGTASVVCLLNNFYPREAKVQWKVDNALQSGNSQESVTEQDSKDSTYSLSSTLTLSKADYEKHKVYACEVTHQGLSSPVTKSFNRGEC
notes: also called SBT-040-G2WT
B11: SBT-040-AAA-ATAC11 (antibody, human IgG1, kappa)
heavy: not shown
light: DIQMTQSPSSVSASVGDRVTITCRASQGIYSWLAWYQQKPGKAPNLLIYTASTLQSGVPSRFSGSGSGTDFTLTISSLQPEDFATYYCQQANIFPLTFGGGTKVEIKRTVAAPSVFIFPPSDEQLKSGTASVVCLLNNFYPREAKVQWKVDNALQSGNSQESVTEQDSKDSTYSLSSTLTLSKADYEKHKVYACEVTHQGLSSPVTKSFNRGEC
modifications: ATAC11 on reduced cysteines; sites not stated (heavy or light chain); ATAC11 (maleimide-PEG4 linker with immune-stimulatory compound) on reduced cysteines; sites not stated (heavy or light chain); DAR 2.9
B12: SBT-040-AAA-ATAC22 (antibody, human IgG1, kappa)
heavy: not shown
light: DIQMTQSPSSVSASVGDRVTITCRASQGIYSWLAWYQQKPGKAPNLLIYTASTLQSGVPSRFSGSGSGTDFTLTISSLQPEDFATYYCQQANIFPLTFGGGTKVEIKRTVAAPSVFIFPPSDEQLKSGTASVVCLLNNFYPREAKVQWKVDNALQSGNSQESVTEQDSKDSTYSLSSTLTLSKADYEKHKVYACEVTHQGLSSPVTKSFNRGEC
modifications: ATAC22 on reduced cysteines; sites not stated (heavy or light chain); ATAC22 (maleimidocaproyl-Val-Ala-PAB linker with immune-stimulatory compound) on reduced cysteines; sites not stated (heavy or light chain); DAR 4.1
B13: SBT-040-VLPLL-ATAC22 (antibody, human IgG1, kappa)
heavy: not shown
light: DIQMTQSPSSVSASVGDRVTITCRASQGIYSWLAWYQQKPGKAPNLLIYTASTLQSGVPSRFSGSGSGTDFTLTISSLQPEDFATYYCQQANIFPLTFGGGTKVEIKRTVAAPSVFIFPPSDEQLKSGTASVVCLLNNFYPREAKVQWKVDNALQSGNSQESVTEQDSKDSTYSLSSTLTLSKADYEKHKVYACEVTHQGLSSPVTKSFNRGEC
modifications: ATAC22 on reduced cysteines; sites not stated (heavy or light chain); ATAC22 (maleimidocaproyl-Val-Ala-PAB linker with immune-stimulatory compound) on reduced cysteines; sites not stated (heavy or light chain); DAR 3.9
B14: SBT-040-VLPLL-ATAC11 (antibody, human IgG1, kappa)
heavy: not shown
light: DIQMTQSPSSVSASVGDRVTITCRASQGIYSWLAWYQQKPGKAPNLLIYTASTLQSGVPSRFSGSGSGTDFTLTISSLQPEDFATYYCQQANIFPLTFGGGTKVEIKRTVAAPSVFIFPPSDEQLKSGTASVVCLLNNFYPREAKVQWKVDNALQSGNSQESVTEQDSKDSTYSLSSTLTLSKADYEKHKVYACEVTHQGLSSPVTKSFNRGEC
modifications: ATAC11 on reduced cysteines; sites not stated (heavy or light chain); ATAC11 (maleimide-PEG4 linker with immune-stimulatory compound) on reduced cysteines; sites not stated (heavy or light chain); DAR 2.9

Key:
human FcγRIIIB = target: T1, human FcγRIIIB (human, UniProt O75015 17-200); experiment: BLI (Octet Red 96), FcγR on anti-his tag sensor, antibody as analyte, avidity fit
T1 construct: also called CD16b
Method: For human FcγRIIB/C, FcγRIIIA F158, FcγRIIIA V158 and FcγRIIIB interaction studies, the proteins were immobilized on anti-his tag biosensors and incubated with varying concentration of unconjugated anti-CD40 antibodies or anti-CD40 antibody immune-stimulatory compound conjugates ranging from 0.04 μM to 8 μM. […] The experiment comprised of 5 steps: (1) baseline acquisition (60 s); (2) anti-CD40 antibodies or anti-CD40 antibody immune-stimulatory compound conjugates loading onto […] (120 s); (3) second baseline acquisition (60 s); (4) association of interacting protein for kₒₙ measurement (120 s); (5) dissociation of interacting FcγR for koff measurement (300 s). The interacting anti-CD40 antibodies or anti-CD40 antibody immune-stimulatory compound conjugates were used at 4 concentrations of 2 fold concentration series. Data were analyzed using Octet Data Analysis Software 9.0 (ForteBio) and fitted to the avidity binding model. Equilibrium dissociation constants (KD) were calculated by the […].

Rhesus CD40 ECD monomer = target: T2, Rhesus CD40 ECD monomer (rhesus, UniProt F6SNI1 21-193); experiment: BLI (Octet Red 96), antibody on anti-human Fc sensor, monomeric CD40 ECD as analyte, 1:1 fit
T2 construct: Recombinant monomeric CD40 ECD used as analyte; also called monomeric rhesus CD40
Method: (§1) Analysis of CD40 ECD interaction was performed using Octet Red 96 instrument (ForteBio). The Octet systems use propriety BLI to analyze biomolecular interaction. […] The experiments were comprised of 5 steps: (1) baseline acquisition (60 s); (2) antibodies and antibody immune-stimulatory compound conjugates loading onto anti-human Fc biosensor (120 s); (3) second baseline acquisition (60 s); (4) association of interacting monomeric CD40 ECD protein for kₒₙ measurement (120 s); (5) Dissociation of interacting monomeric CD40 ECD for koff measurement (360 s). The interacting monomeric CD40 ECD were used at 5-6 concentrations of 3-fold concentration series. Data were analyzed using Octet Data Analysis Sofware 9.0 (ForteBio) and fitted to the 1:1 binding model. Equilibrium dissociation constants (KD) were calculated by the […].

human FcγRI = target: T3, human FcγRI (human, UniProt P12314 16-288, limits assumed); experiment: BLI (Octet Red 96), antibody on anti-human Fc sensor, monomeric FcγR as analyte
T3 construct: Monomeric FcγR used as analyte in solution; also called CD64
Method: Human FcγR interaction analysis was also performed using Octet Red 96 instrument. […] The experiments were comprised of 5 steps: (1) baseline acquisition (60 s); (2) anti-CD40 antibodies or anti-CD40 antibody immune-stimulatory compound conjugates loading onto anti-human Fc biosensor (120 s); (3) second baseline acquisition (60 s); (4) association of interacting protein for kₒₙ measurement (120 s); (5) dissociation of interacting FcγR for koff measurement (300 s). The interacting monomeric FcγR were used at 5-6 concentrations of 3-fold concentration series. Data were analyzed using Octet Data Analysis Software 9.0 (ForteBio) and fitted to the 1:1 binding model. Equilibrium dissociation constants (KD) were calculated by the […].

Human CD40 ECD monomer = target: T4, Human CD40 ECD monomer (human, UniProt P25942 21-193); experiment: BLI (Octet Red 96), antibody on anti-human Fc sensor, monomeric CD40 ECD as analyte, 1:1 fit
T4 construct: extracellular domain; Recombinant monomeric CD40 ECD used as analyte; also called monomeric human CD40; CD40 Extracellular Domain (ECD)
Method: as §1

T1 sequence (O75015 17-200 limits assumed): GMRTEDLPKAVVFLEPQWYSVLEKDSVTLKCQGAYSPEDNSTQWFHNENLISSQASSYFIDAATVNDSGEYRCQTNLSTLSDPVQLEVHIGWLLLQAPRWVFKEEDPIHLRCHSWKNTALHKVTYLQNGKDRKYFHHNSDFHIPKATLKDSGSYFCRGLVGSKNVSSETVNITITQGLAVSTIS
T4 sequence (P25942 21-193): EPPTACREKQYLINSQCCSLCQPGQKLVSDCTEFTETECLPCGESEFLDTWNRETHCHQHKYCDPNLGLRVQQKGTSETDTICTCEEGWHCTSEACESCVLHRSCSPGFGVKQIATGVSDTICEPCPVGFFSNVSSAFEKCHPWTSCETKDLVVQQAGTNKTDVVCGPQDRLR
T3 sequence (P12314 16-288 limits assumed): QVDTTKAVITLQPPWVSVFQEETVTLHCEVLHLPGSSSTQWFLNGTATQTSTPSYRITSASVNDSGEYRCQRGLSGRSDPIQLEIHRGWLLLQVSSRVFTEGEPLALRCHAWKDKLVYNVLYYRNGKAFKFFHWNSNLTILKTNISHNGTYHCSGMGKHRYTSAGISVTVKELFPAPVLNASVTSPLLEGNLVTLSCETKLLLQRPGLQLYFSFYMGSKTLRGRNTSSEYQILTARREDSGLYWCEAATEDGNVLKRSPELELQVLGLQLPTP
T2 sequence (F6SNI1 entry or part of it limits assumed): as the sequence (P25942 21-193) above, with G43S, H56R, W89L, T92M, A95S, L101P, S106L, H142R, L172Q counted along it

| Binder | Kd (human FcγRIIIB) [nM] | Kd (Rhesus CD40 ECD monomer) [nM] | binding result (human FcγRI) | Kd (Human CD40 ECD monomer) [nM] |
| --- | --- | --- | --- | --- |
| B1 | 5000 | 13.5 |  |  |
| B2 | 3930 | 11.5 | no binding (tested: 1.2 nM to 1 µM FcγR) | 7.3 |
| B3 | 3240 | 12.9 |  | 9.3 |
| B4 | 3600 | 14 |  |  |
| B5 |  | 15.2 | no binding (tested: 1.2 nM to 1 µM FcγR) | 7.2 |
| B6 | 2710 | 13.6 |  | 8 |
| B7 | 1500 | 13.1 |  | 9 |
| B8 |  | 13.6 | no binding (tested: 1.2 nM to 1 µM FcγR) | 8.7 |
| B9 |  | 14 | no binding (tested: 1.2 nM to 1 µM FcγR) | 7.4 |
| B10 |  | 12.4 | no binding (tested: 1.2 nM to 1 µM FcγR) | 7.7 |
| B11 | 3830 |  |  |  |
| B12 |  |  |  | 5 |
| B13 |  |  |  | 7.5 |
| B14 |  |  |  | 7.6 |
